Measurements from patent publication US20220135655A1.

Target: H5VN04 recombinant trimeric hemagglutinin (HA) (influenza A virus H5VN04 (H5N1))

Substance	fold reduction of binding against CR6261 [fold]	fold reduction of binding against F10 [fold]
CR6261 Y98A scFv	> 4000	
F10 Y98A scFv		> 3000
CR6261 F54A scFv	800	
